One block for each binder: values may come before it.
How the values were obtained:
[1] = target: T1, ICAM1, endogenous in H929 multiple myeloma cells (human, UniProt P05362 28-532); assay: flow cytometry, AF647-IgG1 on H929 cells
T1 construct: Native protein on H929 cells (flow cytometry, siRNA knockdown) and in H929 lysates (IP/MS); also called CD54
Protocol: (§1) Staining protocol. Cells were harvested (5×10⁴ cells per sample), washed once with phosphate-buffered saline (PBS) at RT, and a second time with ice-cold FACS buffer (PBS, 0.5% BSA, 2 mM EDTA, 0.1% NaN₃). Cells were stained in 50 μL of primary antibody for 30 min on ice, washed twice with 100 μL FACS buffer, stained with 50 μL of diluted secondary antibody, washed two more times in FACS, and then resuspended in 50 μL FACS buffer. Samples were acquired on an Accuri C6 Plus or a BD FACSCanto II flow cytometer (both from BD Biosciences). Data were analyzed using FlowJo version 10 software. Primary antibodies: Fab (10 μg/mL), IgG1 (0.1 to 50 μg/mL), or 25 μL polyclonal Fabs from periplasmic extracts. Polyclonal Fabs were produced by diluting bacterial stocks by a factor of 100 in autoinduction media and incubating overnight to induce expression as previously described. […] Viability stains: DAPI (Cell Signaling Technology) or SYTOX AADvanced Dead Cell Stain (Thermo Fisher Scientific). Labeling: The panel of chimeric rabbit/human IgG1s was labeled using the Alexa Fluor 647 Labeling Kit (Thermo Fisher Scientific, #A20173) to facilitate single-step staining. Competition: Unlabeled IgG1s were added at saturating concentrations of 60 μg/mL to block the target receptors, incubating on ice for 30 min, followed by the addition of an equal volume of the Alexa Fluor 647 labeled antibody at 2 μg/mL, and the mixture was incubated on ice for another 30 min.

[2] = target: T2, CADM1, endogenous in H929 multiple myeloma cells (human, UniProt Q9BY67 45-442); assay: flow cytometry, AF647-IgG1 on H929 cells
T2 construct: Native protein on H929 cells (flow cytometry, siRNA knockdown) and in H929 lysates (IP/MS); also called IGSF4A
T2 sequence: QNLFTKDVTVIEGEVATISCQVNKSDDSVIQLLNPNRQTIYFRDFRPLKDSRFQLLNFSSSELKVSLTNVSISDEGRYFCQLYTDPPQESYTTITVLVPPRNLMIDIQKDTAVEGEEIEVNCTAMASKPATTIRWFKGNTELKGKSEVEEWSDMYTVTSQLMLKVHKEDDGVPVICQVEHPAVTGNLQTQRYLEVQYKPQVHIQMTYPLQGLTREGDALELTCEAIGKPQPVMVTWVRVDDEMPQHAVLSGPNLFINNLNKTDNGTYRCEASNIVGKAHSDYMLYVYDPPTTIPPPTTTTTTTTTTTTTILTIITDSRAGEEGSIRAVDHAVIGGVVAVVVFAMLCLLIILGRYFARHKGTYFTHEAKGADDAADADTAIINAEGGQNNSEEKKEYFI
Protocol: as §1

[3] = target: T3, PTPRG, endogenous in H929 multiple myeloma cells (human, UniProt P23470 20-1445); assay: flow cytometry, AF647-IgG1 on H929 cells
T3 construct: Native protein on H929 cells (flow cytometry, siRNA knockdown) and in H929 lysates (IP/MS); also called phosphatase receptor type γ
T3 sequence (P23470 20-1445 limits assumed): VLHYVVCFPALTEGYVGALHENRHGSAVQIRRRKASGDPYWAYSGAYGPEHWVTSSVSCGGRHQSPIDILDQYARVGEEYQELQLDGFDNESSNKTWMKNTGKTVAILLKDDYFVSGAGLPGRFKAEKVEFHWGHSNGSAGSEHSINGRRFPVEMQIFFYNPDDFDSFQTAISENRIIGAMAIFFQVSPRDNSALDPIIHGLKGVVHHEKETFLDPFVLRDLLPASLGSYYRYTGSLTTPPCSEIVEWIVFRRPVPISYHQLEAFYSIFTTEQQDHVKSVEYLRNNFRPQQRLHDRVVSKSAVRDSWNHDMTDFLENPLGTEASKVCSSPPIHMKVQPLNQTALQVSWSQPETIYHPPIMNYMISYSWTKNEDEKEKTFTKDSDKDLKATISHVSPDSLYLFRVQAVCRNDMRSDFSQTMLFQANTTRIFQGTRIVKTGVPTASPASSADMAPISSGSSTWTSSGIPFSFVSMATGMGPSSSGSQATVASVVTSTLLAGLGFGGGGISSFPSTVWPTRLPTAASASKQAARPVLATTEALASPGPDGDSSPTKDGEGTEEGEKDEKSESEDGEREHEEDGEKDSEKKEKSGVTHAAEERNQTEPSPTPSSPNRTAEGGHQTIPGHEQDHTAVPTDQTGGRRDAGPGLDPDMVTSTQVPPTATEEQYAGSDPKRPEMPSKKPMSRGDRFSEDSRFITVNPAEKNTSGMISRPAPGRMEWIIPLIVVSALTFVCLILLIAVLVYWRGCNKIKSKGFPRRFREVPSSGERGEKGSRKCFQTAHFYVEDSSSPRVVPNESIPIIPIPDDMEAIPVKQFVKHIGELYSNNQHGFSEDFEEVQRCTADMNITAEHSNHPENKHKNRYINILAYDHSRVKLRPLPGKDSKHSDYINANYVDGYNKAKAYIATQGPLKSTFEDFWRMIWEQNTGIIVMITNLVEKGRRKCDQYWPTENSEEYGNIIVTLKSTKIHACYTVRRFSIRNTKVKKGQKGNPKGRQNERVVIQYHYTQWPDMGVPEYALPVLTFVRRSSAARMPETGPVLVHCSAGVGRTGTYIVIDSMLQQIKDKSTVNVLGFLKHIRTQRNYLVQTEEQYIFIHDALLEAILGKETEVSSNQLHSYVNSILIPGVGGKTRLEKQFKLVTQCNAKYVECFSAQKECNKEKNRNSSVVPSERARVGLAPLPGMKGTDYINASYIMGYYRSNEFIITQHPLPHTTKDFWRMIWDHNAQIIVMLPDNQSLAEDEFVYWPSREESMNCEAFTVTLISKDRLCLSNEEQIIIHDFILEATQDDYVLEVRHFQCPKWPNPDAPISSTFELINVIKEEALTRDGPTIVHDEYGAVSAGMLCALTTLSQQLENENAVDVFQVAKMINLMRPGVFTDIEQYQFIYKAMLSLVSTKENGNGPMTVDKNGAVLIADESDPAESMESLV
Protocol: as §1

[4] = target: T3, PTPRG, endogenous in H929 multiple …; assay: flow cytometry, H929 + CDH18 siRNA; None 0.19
[5] = target: T1, ICAM1, endogenous in H929 multiple …; assay: flow cytometry, H929 + CDH18 siRNA; None 0.19
[6] = target: T1, ICAM1, endogenous in H929 multiple …; assay: flow cytometry, H929 + CADM1 siRNA; None 449
[7] = target: T2, CADM1, endogenous in H929 multiple …; assay: flow cytometry, H929 + CDH18 siRNA; None 0.19
[8] = target: T2, CADM1, endogenous in H929 multiple …; assay: flow cytometry, H929 + GARS siRNA; None 452
[9] = target: T4, GARS-His (Sino Biological) (human, UniProt P41250 37-739, limits assumed); assay: ELISA, coated recombinant GARS-His, anti-human Fab-peroxidase detection
T4 construct: Bought; also called GARS1; glycyl-tRNA synthetase; not shown: His tag of the bought protein
T4 sequence: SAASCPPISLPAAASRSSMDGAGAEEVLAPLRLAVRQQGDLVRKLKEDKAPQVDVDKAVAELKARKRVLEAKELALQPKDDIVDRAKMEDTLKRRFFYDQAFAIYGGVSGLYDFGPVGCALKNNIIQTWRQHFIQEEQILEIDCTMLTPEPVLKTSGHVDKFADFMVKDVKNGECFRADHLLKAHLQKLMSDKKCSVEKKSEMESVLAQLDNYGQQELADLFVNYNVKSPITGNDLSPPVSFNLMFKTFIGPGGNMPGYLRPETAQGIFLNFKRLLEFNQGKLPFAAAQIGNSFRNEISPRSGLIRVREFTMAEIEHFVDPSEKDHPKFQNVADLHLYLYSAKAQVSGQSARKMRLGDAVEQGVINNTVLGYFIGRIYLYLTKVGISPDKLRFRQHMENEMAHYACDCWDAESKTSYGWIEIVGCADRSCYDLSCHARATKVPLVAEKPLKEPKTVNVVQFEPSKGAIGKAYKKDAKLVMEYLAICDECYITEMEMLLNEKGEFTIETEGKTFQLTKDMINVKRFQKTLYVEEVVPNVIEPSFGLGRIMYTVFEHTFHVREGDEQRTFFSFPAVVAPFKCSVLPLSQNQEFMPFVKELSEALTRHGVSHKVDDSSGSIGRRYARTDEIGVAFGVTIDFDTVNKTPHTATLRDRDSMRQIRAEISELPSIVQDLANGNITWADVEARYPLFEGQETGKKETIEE
Protocol: ELISA ELISA was conducted as described previously. Briefly, 50-150 ng of antigen was coated overnight in half-area 96-well plates at 4° C., blocked with 3% BSA at 37° C. for 1 h, and 150 ng of chimeric rabbit/human IgG1 was added, incubating for 2 h at 37° C. […] After incubating at 37° C. for 15 min-1 h (depending on intensity of controls), data were acquired using a SpectraMax M5 plate reader (Molecular Devices).

T1 sequence (P05362 28-532 limits assumed): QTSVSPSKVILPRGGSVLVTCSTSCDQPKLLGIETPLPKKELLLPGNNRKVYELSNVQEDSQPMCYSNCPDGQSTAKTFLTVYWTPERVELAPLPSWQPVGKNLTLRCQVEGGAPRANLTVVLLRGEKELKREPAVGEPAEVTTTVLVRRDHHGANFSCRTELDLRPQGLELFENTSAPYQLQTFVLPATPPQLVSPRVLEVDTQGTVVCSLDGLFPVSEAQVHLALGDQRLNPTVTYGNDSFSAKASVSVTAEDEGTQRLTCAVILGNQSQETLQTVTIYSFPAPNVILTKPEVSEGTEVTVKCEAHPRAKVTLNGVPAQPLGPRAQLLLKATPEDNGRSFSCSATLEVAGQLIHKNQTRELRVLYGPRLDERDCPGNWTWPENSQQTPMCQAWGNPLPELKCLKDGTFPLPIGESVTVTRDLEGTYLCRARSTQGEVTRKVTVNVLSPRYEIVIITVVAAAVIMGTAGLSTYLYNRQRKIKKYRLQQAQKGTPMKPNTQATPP

binding result [1]: no binding | binding result [2]: no binding | binding result [3]: no binding
B1: TH9-0022 (antibody, human IgG1, kappa, L234A L235A, V domains shown)
VH: QSLEESGGRLVTPGTPLTLTCTVSGFSLSSYAMNWVRQAPGKGLEWIGIINSYGSTYYASWAKGRFTISKTSTTVDLKITSPTTEDTATYFCARVTYDSYGYGYAPYGMDLWGPGTLVTVSS
VL: LVMTQTPSSTSNAVGGTVTIKCQASQSIGNVLAWYQQKPGQPPKLLIYAASTLASGVPSRVGGSRSGTEYTLTISGVQREDAATYYCLGSDSDSDIAFGGGTELEILR
notes: also called TH9-022; negative control

Cells stained (%) [4]: 99.5%
B2: HW-42 chimeric rabbit-human IgG1 LA/LA/PG (antibody, V domains shown)
VH: QSVKESEGGLFKPADTLTLTCTVSGFSLSSNEISWVRQAPGEGLEYIGIIDTGGRAYYAVWARSRSTITRNTNLNTVTLKMTSLTAADTATYFCARGGVDTEWYAFSSWGPGTLVTVPS
VL: SFVLTQPASVQVNLGQTVSLTCTADTLSRRYASWYQQKPGQAPVLLIFRDTSRPSGVPDRFSGSSSGDTATLTISGAQAGDEADYYCATSDGSGSNYQYVFGGGTQLTVTG
notes: Fc-silenced (L234A/L235A/P329G) IgG1, lambda; Alexa Fluor 647-labeled in single-step flow cytometry; Cluster C-1

Cells stained (%) [5]: 98.8% | mAb binding (MFI) [6]: 32600
B3: HW-113 chimeric rabbit-human IgG1 LA/LA/PG (antibody, V domains shown)
VH: QKQLVESGGGLVQPGGSLTLTCTVSGFSLNKYYMGWFRQAPGKGLEWIGVISRSGDTYYSSWAKGRFTISKASTTVDLRITSPTTEDTATYFCARDASSPGFHGDRLDLWGQGTLVTVSS
VL: SFVLTQPASVQVNLGQTVSLTCTADTLSRSYASWYQQKPGQAPVLLIYRDTSRPSGVPDRFSGSSSGNTATLTISGAQAGDEADYYCATSDGIGSNYLWVFGGGTQLTVTG
notes: Fc-silenced (L234A/L235A/P329G) IgG1, lambda; Alexa Fluor 647-labeled in single-step flow cytometry

Cells stained (%) [7]: 99.7% | mAb binding (MFI) [8]: 22100
B4: HW-97 chimeric rabbit-human IgG1 LA/LA/PG (antibody, V domains shown)
VH: QKQLVESGGRLVTPGTPLTLTCTVTGIDLSSHGMSWVRQAPGKGLEWIGVIYPSGSTWYASWARGRFTISKTSTTVDLKMTSLTTEDTATHFCARGDVGGADNNIWGPGTLVTVSS
VL: SFVLTQPASVQVDLGQTVSLTCTAETLSRSYASWYQQKPGQAPVLLIYRDTSRPSGVPDRFSGSSSGNTATLTISGAQAGDEADYYCATSDGSGSSYQYVFGGGTQLTVTG
notes: Fc-silenced (L234A/L235A/P329G) IgG1, lambda; Alexa Fluor 647-labeled in single-step flow cytometry; Prototype of cluster C-97

B5: HW-8 chimeric rabbit-human IgG1 LA/LA/PG (antibody, V domains shown)
VH: QSLEESGGRLVTPGTPLTLTCTVSGFSLSSYAMSWVRQAPGKGLEWIGAISTGGSTTYASWAKGRFTISKTSSTTVDLKMTSLTTEDTATYFCVRHFRLWGPGTLVTISS
VL: QVLTQTPSSVSAAVGGTVTIKCQASQSIGSALAWFQQKPGQRPKLLIYRASNLASGVPSRFKGSGSGTEFALTISGVQREDAATYYCLGGAAAVWAFGAGTNVEIKR
notes: Fc-silenced (L234A/L235A/P329G) IgG1, kappa; Alexa Fluor 647-labeled in single-step flow cytometry; Cluster C-45
binding result [9]: no binding (tested: 150 ng of IgG1 per well)

Source: US20260049134A1 (UNIVERSITY OF FLORIDA RESEARCH FOUNDATION, published 2026)
